This data set deals with hyperactive Tn5 transposase (EK54, MA56, LP372) expressed from pMIR86 (UniProt Q46731 Q46731:1-476, E54K,M56A,L372P). The data set is described as follows: cell_activity; NIH3T3 co-transfection. As to conditions: tags: pCI mammalian expression vector; chain copies: 2; PshA I blunt-ended linear transposon, ME inverted repeats at both ends. From the text: C. Tn5 transposase expressed in eukaryotic cells increases the number of integration events. Plasmid pMIR86 encoding transposase was co-transfected into NIH3T3 cells with transposon plasmid pMIR136 (pSEAP-Tn). The pMIR136 was either linearized with PshA I to form the transposon (SEAP-Tn), or cut with Eco R V/Sse8387 I to remove Tn5 elements from the transposon (SEAP), or left supercoiled (pSEAP-Tn). Control reactions included the same transposon DNA samples but with pCI-Luc (Promega) instead of pMIR86. […] No increase in colonies was observed when linear transposon DNA lacking flanking recognition elements was used.

B1: SEAP-Tn linear transposon with mosaic ends (dsDNA)
DNA 1: CTGTCTCTTATACACATCT
DNA 2: AGATGTGTATAAGAGACAG
With B1, the activity was 1.6 fold colonies vs control plasmid.

The record behind these values is US20030143740, “Processes for transposase mediated integration into mammalian cells” (published 2003).
